# Measured values reported in publication PMC5076819.
# T1: S. gordonii SecY2-Asp4-Asp5 complex (S. gordonii) (UniProt A8AWV0)
# T1 sequence 1: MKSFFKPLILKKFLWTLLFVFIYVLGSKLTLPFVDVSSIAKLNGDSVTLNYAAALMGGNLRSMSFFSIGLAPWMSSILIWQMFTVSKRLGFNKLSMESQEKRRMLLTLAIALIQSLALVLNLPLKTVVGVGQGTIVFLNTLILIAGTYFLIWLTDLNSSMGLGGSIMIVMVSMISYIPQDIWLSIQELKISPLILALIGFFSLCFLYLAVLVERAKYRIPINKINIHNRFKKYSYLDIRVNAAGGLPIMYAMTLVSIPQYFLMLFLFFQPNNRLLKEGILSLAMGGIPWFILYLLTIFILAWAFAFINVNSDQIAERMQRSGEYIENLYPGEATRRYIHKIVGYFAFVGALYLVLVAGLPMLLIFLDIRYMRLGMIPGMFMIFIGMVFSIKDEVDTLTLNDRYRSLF
# T1 sequence 2: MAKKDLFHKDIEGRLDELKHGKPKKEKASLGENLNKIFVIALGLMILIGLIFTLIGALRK
# T1 sequence 3: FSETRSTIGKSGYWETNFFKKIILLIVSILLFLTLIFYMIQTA
# B1: S. gordonii SecA2 with a C-terminal His6 tag (enzyme)
# chain: MVKNFFHIRRLKKILAKIKSFEKEMSSLSDLDLQKKTDEFKKRLADGENLDQLLPEAYAVVREVDKRILGLFPYDVQVMGAIVLHEGNIAEMATGEGKTLTATMPLYLNALSGQGAMLVTPNSYLALRDAKEMGPVYRFLGLTIETAVRADESKPLETKEKRRIYQADIIYTTNSALGFDYLIENLAENKKNQFLREFNYVIIDEIDSILLDSAQTPLIISGAPRVQSNFYDMMNTLVQTLYEDEDYCYDDEKNEVWLTQKGIRAAESFLGLNHLFSKENQELVRHLNLALRAHMVYKKDQDYVVRQSENEAEVVLLDRATGRLMELTRLQGGQHQAIEAKEHVKLTQETRAMASITYQNLFKLFRKLSGMTGTGKVVESEFLETYSMSVVKIPTNCPVIRRDYPDQIYQTLPEKVFASLDEVKHYHAKGNPLLIFTGSVEMSEIYSSLLLREGIAHNLLNANNVAREAQMIAESGQLGAVTVATSMAGRGTDIKLGPGVADLGGLVVIGTERMENHRIDLQIRGRSGRQGDPGISKFFISLEDDLLKKWGPDWIKNFYRDYSPEDFKNNPILLKQRRFKKLVSKAQKASEGNAKLSRRLTLEYAQSMKIQRELTYAERNRLLEDTNEMEEEINRVIEYVIKQVAYEQSFENRADFYRFILHHFSNRAERIPQEFDIHSPKEVSHLLQAIAEQELLAKKSYLKSDKLYSQFQRLAILKAIDENWVEQVDYLQQLKSALSGFHTSNKKPIVEYYQEAYDGFEYMKERMKHQIVKNLLMSELALNPKGEVVMYFP
# Target: T1, S. gordonii SecY2-Asp4-Asp5 complex (S. gordonii)
Molecule,"steady-state ATPase activity of 0.3 uM E. coli SecA on addition of 0.46 uM SecY2-Asp4-Asp5 in proteoliposomes, 25 C (SecA alone ~0.02 s^-1) [s⁻¹]","steady-state ATPase activity of 0.3 uM S. gordonii SecA2 on addition of 0.46 uM SecY2-Asp4-Asp5 in proteoliposomes, 25 C (SecA2 alone ~0.01 s^-1; 4-fold increase) [s⁻¹]"
E. coli SecA (from UniProt P10408 1-901) (enzyme),0.072,–
B1,–,0.044
